One may read the Kd as a measure of binding affinity in units of concentration.

The values that follow come from patent US20250277018A1 (published 2025).

One assay has as its target Human serum albumin. Nature of the assay: ELISA; pH 7.4. On the technique in general: ELISA stands for enzyme-linked immunosorbent assay.
For another assay, the target named is T1, Rat serum albumin.
T1 chain: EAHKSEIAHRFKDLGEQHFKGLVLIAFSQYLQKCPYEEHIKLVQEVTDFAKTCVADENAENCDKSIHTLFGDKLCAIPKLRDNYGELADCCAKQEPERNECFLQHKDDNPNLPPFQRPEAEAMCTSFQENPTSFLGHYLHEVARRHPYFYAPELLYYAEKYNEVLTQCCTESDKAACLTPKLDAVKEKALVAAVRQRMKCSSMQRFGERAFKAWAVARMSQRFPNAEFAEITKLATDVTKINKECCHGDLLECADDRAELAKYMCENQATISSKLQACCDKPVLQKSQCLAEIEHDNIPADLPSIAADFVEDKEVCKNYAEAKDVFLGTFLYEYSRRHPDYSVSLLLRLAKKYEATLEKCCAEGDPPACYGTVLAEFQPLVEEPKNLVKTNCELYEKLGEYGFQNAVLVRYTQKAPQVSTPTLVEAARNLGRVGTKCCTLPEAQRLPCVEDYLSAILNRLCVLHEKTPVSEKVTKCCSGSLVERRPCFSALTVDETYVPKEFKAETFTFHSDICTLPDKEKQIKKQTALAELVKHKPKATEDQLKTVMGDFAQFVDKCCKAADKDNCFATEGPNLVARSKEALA
Description: ELISA.

Another assay has as its target Murine serum albumin. Description: ELISA.
Assay [1] has as its target T2, Cynomolgus monkey serum albumin.
T2 chain: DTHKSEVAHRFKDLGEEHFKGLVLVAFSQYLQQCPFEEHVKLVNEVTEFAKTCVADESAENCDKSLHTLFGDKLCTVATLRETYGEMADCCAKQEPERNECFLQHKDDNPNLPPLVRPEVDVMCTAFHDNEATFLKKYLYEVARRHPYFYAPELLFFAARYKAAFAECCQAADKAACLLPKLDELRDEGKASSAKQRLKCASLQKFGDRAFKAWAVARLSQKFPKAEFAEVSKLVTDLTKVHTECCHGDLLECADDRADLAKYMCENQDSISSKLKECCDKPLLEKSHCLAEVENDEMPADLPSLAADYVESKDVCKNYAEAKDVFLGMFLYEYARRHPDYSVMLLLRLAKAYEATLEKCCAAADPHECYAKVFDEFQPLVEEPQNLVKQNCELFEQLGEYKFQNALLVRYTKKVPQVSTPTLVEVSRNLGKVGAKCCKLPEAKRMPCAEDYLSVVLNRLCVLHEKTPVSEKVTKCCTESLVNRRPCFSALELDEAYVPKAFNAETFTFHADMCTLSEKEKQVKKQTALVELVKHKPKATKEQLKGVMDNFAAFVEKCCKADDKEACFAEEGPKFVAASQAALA
Description: ELISA.

For a further assay, the target named is 4A01v5. Nature of the assay: ELISA.
Another assay deals with 4A01v4. Description: ELISA.
A further assay has as its target 4A01v3. Description: ELISA.
For another assay, the target named is 4A01v6. Description: ELISA.
The next assay has as its target 4A01v1. Nature of the assay: ELISA.
Another assay concerns the target 4A01v3-7. Nature of the assay: ELISA.
The target of the next assay is 4A01v3-8. Nature of the assay: ELISA.
In a further assay the target is 4A01v3-3. Nature of the assay: ELISA.
In another assay the target is 4A01v3-4. Nature of the assay: ELISA.
The next assay concerns the target 4A01v9. Nature of the assay: ELISA.
Another assay deals with 4A01v3-1. Description: ELISA.
A further assay deals with 4A01v3-5. Nature of the assay: ELISA.

Sequence of Murine serum albumin (chain, as listed by the source): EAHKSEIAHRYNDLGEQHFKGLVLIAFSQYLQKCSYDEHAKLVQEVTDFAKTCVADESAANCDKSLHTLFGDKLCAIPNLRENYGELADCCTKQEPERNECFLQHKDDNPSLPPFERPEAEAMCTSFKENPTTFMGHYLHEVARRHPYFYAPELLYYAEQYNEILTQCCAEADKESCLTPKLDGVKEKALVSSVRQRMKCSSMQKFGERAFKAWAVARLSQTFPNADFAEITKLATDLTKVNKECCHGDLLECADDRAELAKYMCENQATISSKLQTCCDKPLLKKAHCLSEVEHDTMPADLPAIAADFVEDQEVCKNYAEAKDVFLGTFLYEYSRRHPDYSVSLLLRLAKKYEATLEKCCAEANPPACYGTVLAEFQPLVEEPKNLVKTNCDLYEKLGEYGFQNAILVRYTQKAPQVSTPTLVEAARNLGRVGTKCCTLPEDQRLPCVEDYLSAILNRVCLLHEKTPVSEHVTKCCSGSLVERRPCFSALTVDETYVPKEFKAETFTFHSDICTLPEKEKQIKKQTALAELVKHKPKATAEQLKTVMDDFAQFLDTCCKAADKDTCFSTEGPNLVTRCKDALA

B1: cx12583 (VHH)
chain: GGGGDKTHTCPPCPAPGGPSVFLFPPKPKDTLMISRTPEVTCVVVDVSHEDPEVKFNWYVDGVEVHNAKTKPREEQYNSTYRVVSVLTVLHQDWLNGKEYKCKVSNKALPAPIEKTISKAKGQPREPQVYTLPPSRDELTKNQVSLTCLVKGFYPSDIAVEWESNGQPENNYKTTPPVLDSDGSFFLYSKLTVDKSRWQQGNVFSCSVMHEALHNHYTQKSLSLSPGSGGGSEVQLVESGGGEVQPGGSLRLSCAASGFTFSTSGMVWVRQAPGKGLEWVSTISDDARITVYAESVKGRFTISRDNAKNTVYLQMNSLRAEDTAVYYCATYRAGSRIGSYEDYYRGQGTLVTVKP
Consider B1, for which, in the assay with Human serum albumin, the equilibrium dissociation constant (Kd) was found to be 0.126 nM.

B2: cx5009, hz4A01v51 VHH-hIgG1-xELL-NNT-Fc (VHH)
VHH: EVQLVESGGGEVQPGGSLRLSCAASGFTFSTSGMVWVRQAPGKGLEWVSTISDDARITVYAESVKGRFTISRDNAKNTVYLQMNSLRAEDTAVYYCATYRAGSRIGSYEDYYRGQGTLVTVKP
On to B2, for which the Kd was 0.234 nM in the assay with Rat serum albumin, 0.207 nM in the assay with Murine serum albumin and 0.189 nM in assay [1].

B3: cx12596 (bispecific antibody)
heavy: EVQLVESGGGLEQPGGSLRLSCAGSGFTFRDYAMTWVRQAPGKGLEWVSSISGSGGNTYYADSVKGRFTISRDNSKNTLYLQMNSLRAEDTAVYYCAKDRLSITIRPRYYGLDVWGQGTTVTVSSASTKGPSVFPLAPCSRSTSESTAALGCLVKDYFPEPVTVSWNSGALTSGVHTFPAVLQSSGLYSLSSVVTVPSSSLGTKTYTCNVDHKPSNTKVDKRVGGSGGSEVQLVESGGGEVQPGGSLRLSCAASGFTFSTSGMVWVRQAPGKGLEWVSTISDDARITVYAESVKGRFTISRDNAKNTVYLQMNSLRAEDTAVYYCATYRAGSRIGSYEDYYRGQGTLVTVKPGGGGDKTHTCPPCPAPGGPSVFLFPPKPKDTLMISRTPEVTCVVVDVSHEDPEVKFNWYVDGVEVHNAKTKPREEQYNSTYRVVSVLTVLHQDWLNGKEYKCKVSNKALPAPIEKTISKAKGQPREPQVYTLPPSRDELTKNQVSLTCLVKGFYPSDIAVEWESNGQPENNYKTTPPVLDSDGSFFLYSKLTVDKSRWQQGNVFSCSVMHEALHNHYTQKSLSLSP
light: DIVMTQSPLSLPVTPGEPASISCRSSQSLLYSIGYNYLDWYLQKSGQSPQLLIYLGSNRASGVPDRFSGSGSGTDFTLKISRVEAEDVGFYYCMQALQTPYTFGQGTKLEIKRTVAAPSVFIFPPSDEQLKSGTASVVCLLNNFYPREAKVQWKVDNALQSGNSQESVTEQDSKDSTYSLSSTLTLSKADYEKHKVYACEVTHQGLSSPVTKSENRGEC
On to B3, for which, in the assay with Human serum albumin, the equilibrium dissociation constant (Kd) turned out to be 0.0122 nM.

B4: cx12594 (bispecific antibody)
heavy: EVQLVESGGGLEQPGGSLRLSCAGSGFTFRDYAMTWVRQAPGKGLEWVSSISGSGGNTYYADSVKGRFTISRDNSKNTLYLQMNSLRAEDTAVYYCAKDRLSITIRPRYYGLDVWGQGTTVTVSSASTKGPSVFPLAPCSRSTSESTAALGCLVKDYFPEPVTVSWNSGALTSGVHTFPAVLQSSGLYSLSSVVTVPSSSLGTKTYTCNVDHKPSNTKVDKRVESKYGPPCPPCPAPEFLGGPSVFLFPPKPKDTLYISRTPEVTCVVVDVSQEDPEVQFNWYVDGVEVHNAKTKPREEQFNSTYRVVSVLTVLHQDWLNGKEYKCKVSNKGLPSSIEKTISKAKGQPREPQVYTLPPSQEEMTKNQVSLTCLVKGFYPSDIAVEWESNGQPENNYKTTPPVLDSDGSFFLYSRLTVDKSRWQEGNVFSCSVVHEALHNHYTQKSLSLSLGGSGGSEVQLVESGGGEVQPGGSLRLSCAASGFTFSTSGMVWVRQAPGKGLEWVSTISDDARITVYAESVKGRFTISRDNAKNTVYLQMNSLRAEDTAVYYCATYRAGSRIGSYEDYYRGQGTLVTVKP
light: DIVMTQSPLSLPVTPGEPASISCRSSQSLLYSIGYNYLDWYLQKSGQSPQLLIYLGSNRASGVPDRFSGSGSGTDFTLKISRVEAEDVGFYYCMQALQTPYTFGQGTKLEIKRTVAAPSVFIFPPSDEQLKSGTASVVCLLNNFYPREAKVQWKVDNALQSGNSQESVTEQDSKDSTYSLSSTLTLSKADYEKHKVYACEVTHQGLSSPVTKSENRGEC
Molecule B4 yielded a dissociation constant Kd in the assay with Human serum albumin of 0.118 nM.

B5: cx12595 (bispecific antibody)
heavy: EVQLVESGGGLEQPGGSLRLSCAGSGFTFRDYAMTWVRQAPGKGLEWVSSISGSGGNTYYADSVKGRFTISRDNSKNTLYLQMNSLRAEDTAVYYCAKDRLSITIRPRYYGLDVWGQGTTVTVSSASTKGPSVFPLAPCSRSTSESTAALGCLVKDYFPEPVTVSWNSGALTSGVHTFPAVLQSSGLYSLSSVVTVPSSSLGTKTYTCNVDHKPSNTKVDKRVGGSGGSEVQLVESGGGEVQPGGSLRLSCAASGFTFSTSGMVWVRQAPGKGLEWVSTISDDARITVYAESVKGRFTISRDNAKNTVYLQMNSLRAEDTAVYYCATYRAGSRIGSYEDYYRGQGTLVTVKPGGGGESKYGPPCPPCPAPEFLGGPSVFLFPPKPKDTLYISRTPEVTCVVVDVSQEDPEVQFNWYVDGVEVHNAKTKPREEQFNSTYRVVSVLTVLHQDWLNGKEYKCKVSNKGLPSSIEKTISKAKGQPREPQVYTLPPSQEEMTKNQVSLTCLVKGFYPSDIAVEWESNGQPENNYKTTPPVLDSDGSFFLYSRLTVDKSRWQEGNVFSCSVVHEALHNHYTQKSLSLSLG
light: DIVMTQSPLSLPVTPGEPASISCRSSQSLLYSIGYNYLDWYLQKSGQSPQLLIYLGSNRASGVPDRFSGSGSGTDFTLKISRVEAEDVGFYYCMQALQTPYTFGQGTKLEIKRTVAAPSVFIFPPSDEQLKSGTASVVCLLNNFYPREAKVQWKVDNALQSGNSQESVTEQDSKDSTYSLSSTLTLSKADYEKHKVYACEVTHQGLSSPVTKSENRGEC
Consider B5, for which binding with Human serum albumin was characterised by a dissociation constant (Kd) of 0.0326 nM.

B6: cx12584 (VHH)
chain: GGGGDKTHTCPPCPAPGGPSVFLFPPKPKDTLMISRTPEVTCVVVDVSHEDPEVKFNWYVDGVEVHNAKTKPREEQYNSTYRVVSVLTVLHQDWLNGKEYKCKVSNKALPAPIEKTISKAKGQPREPQVYTLPPSRDELTKNQVSLTCLVKGFYPSDIAVEWESNGQPENNYKTTPPVLDSDGSFFLYSKLTVDKSRWQQGNVFSCSVMHEALHNHYTQKSLSLSPGGGSGGGSGGGSEVQLVESGGGEVQPGGSLRLSCAASGFTFSTSGMVWVRQAPGKGLEWVSTISDDARITVYAESVKGRFTISRDNAKNTVYLQMNSLRAEDTAVYYCATYRAGSRIGSYEDYYRGQGTLVTVKP
As to B6, in the assay with Human serum albumin, binding was characterised by a dissociation constant (Kd) of 0.0813 nM.

B7: cy (other)
chain: DTHKSEVAHRFKDLGEEHFKGLVLVAFSQYLQQCPFEEHVKLVNEVTEFAKTCVADESAENCDKSLHTLFGDKLCTVATLRETYGEMADCCAKQEPERNECFLQHKDDNPNLPPLVRPEVDVMCTAFHDNEATFLKKYLYEVARRHPYFYAPELLFFAARYKAAFAECCQAADKAACLLPKLDELRDEGKASSAKQRLKCASLQKFGDRAFKAWAVARLSQKFPKAEFAEVSKLVTDLTKVHTECCHGDLLECADDRADLAKYMCENQDSISSKLKECCDKPLLEKSHCLAEVENDEMPADLPSLAADYVESKDVCKNYAEAKDVFLGMFLYEYARRHPDYSVMLLLRLAKAYEATLEKCCAAADPHECYAKVFDEFQPLVEEPQNLVKQNCELFEQLGEYKFQNALLVRYTKKVPQVSTPTLVEVSRNLGKVGAKCCKLPEAKRMPCAEDYLSVVLNRLCVLHEKTPVSEKVTKCCTESLVNRRPCFSALELDEAYVPKAFNAETFTFHADMCTLSEKEKQVKKQTALVELVKHKPKATKEQLKGVMDNFAAFVEKCCKADDKEACFAEEGPKFVAASQAALA
Turning to B7, the dissociation constant Kd amounted to 0.203 nM in the assay with 4A01v5; 0.247 nM in the assay with 4A01v4; 0.338 nM with 4A01v3; 0.225 nM in the assay with 4A01v6; 0.157 nM with 4A01v1; 0.118 nM in the assay with 4A01v3-7. Also, the dissociation constant (Kd) worked out at 0.147 nM with 4A01v3-8; 0.142 nM with 4A01v3-3; 0.181 nM with 4A01v3-4; 0.117 nM with 4A01v9; 0.127 nM with 4A01v3-1; 0.126 nM with 4A01v3-5.
